Assay results reported in doi:10.1101/2022.08.08.503141 (bioRxiv, 2022).

Target: winged-helix domain 32C of human RPA (residues 172-270 of RPA2) (human, UniProt P15927 172-270)
Assay: NMR titration

winged-helix domain 32C of human RPA (residues 172-270 of RPA2), sequence (P15927 172-270): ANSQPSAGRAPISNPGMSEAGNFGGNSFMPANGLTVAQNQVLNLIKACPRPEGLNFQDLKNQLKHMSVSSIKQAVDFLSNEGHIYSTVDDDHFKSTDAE

B1: harmonin homology domain 2 (HHD2) of human RTEL1, residues 1056-1140 (domain or fragment)
chain: GQHAVSAYLADARRALGSAGCSQLLAALTAYKQDDDLDKVLAVLAALTTAKPEDFPLLHRFSMFVRPHHKQRFSQTCTDLTGRPY
Q: Does B1 bind?
A: Result: binds
